B1: Oph-18mer^NL (peptide)
peptide: WVIVVGVIGVIGSVMSTE
notes: also called 18mer^CF
B2: Oph-15mer (peptide)
peptide: GFPWVIVVGVIGVIG

Biological target: T1, OphP(S580A) (Omphalotus olearius, S580A)
T1 construct: also called OphP variant S580A
T1 chain: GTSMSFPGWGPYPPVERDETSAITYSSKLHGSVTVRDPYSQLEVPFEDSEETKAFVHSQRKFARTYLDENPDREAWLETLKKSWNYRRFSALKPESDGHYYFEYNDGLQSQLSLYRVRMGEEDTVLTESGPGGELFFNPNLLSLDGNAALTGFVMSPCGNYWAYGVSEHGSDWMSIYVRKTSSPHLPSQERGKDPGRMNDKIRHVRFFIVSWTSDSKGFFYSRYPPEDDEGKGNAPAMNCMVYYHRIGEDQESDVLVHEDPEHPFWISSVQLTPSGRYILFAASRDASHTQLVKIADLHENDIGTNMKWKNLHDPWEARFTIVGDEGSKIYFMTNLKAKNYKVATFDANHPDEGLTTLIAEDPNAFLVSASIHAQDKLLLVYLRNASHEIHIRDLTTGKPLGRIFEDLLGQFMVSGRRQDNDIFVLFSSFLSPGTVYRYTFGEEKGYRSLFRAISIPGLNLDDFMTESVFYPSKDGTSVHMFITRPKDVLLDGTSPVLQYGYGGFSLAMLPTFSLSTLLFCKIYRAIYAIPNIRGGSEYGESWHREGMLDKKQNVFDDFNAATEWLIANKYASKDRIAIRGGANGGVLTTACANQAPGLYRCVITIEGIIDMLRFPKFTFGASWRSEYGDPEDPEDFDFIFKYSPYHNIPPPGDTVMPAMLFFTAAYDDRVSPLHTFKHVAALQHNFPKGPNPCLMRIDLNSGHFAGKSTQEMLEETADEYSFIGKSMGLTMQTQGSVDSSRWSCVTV
Test: crystal structure
Details: both partners purified

Binder | binding result
B1 | binds
B2 | binds
